Measurements from US20050181059A1, “Nanoparticulate therapeutic biologically active agents” (Spherics, Inc., priority 2003, published 2005).

Legend:
[1] = in vivo
Protocol: In a separate study, the bioavailability for non-encapsulated insulin was tested.

[2] = SDS-PAGE stability following micronization; assay type: physicochemical; conditions: denaturing, non-reducing; resolubilized in 10 mM PBS
[3] = BCA analysis of protein concentration of redissolved hIL-12; assay type: physicochemical; conditions: BCA assay, resolubilized in 10 mM PBS
Protocol: Recombinant Human Interleukin-12 (hIL-112) was obtained from Genetics Institute and tBA from EM Science. hIL-12 (500 microliters at 2.79 mg/ml) was injected into tBA (5 ml). A fine precipitate formed immediately. The dispersion was rapidly frozen in liquid nitrogen (15 minutes) and the solvent removed by lyophilization for 48 hours. The resulting powder was visualized by SEM. The stability following micronization was assayed by SDS-PAGE (Invitrogen) and BCA (Pierce) assay of hIL-12 resolubilized in 10 mM PBS according to manufacturer's instructions.
SDS-PAGE (denaturing, non-reducing) analysis was used to compare tBA-treated hIL-12 particles with the control stock, with and without lyophilization. […] This was confirmed by […] acid (BCA) analysis of protein concentration of hIL-12 redissolved after lyophilization alone, or after micronization followed by lyophilization. The lyophilized-only protein was 99% soluble, while the micronized protein was 71% soluble. Thus a disagreggating agent should be included to prevent aggregation when micronizing hIL-12 using tBA.

For “Non-encapsulated insulin: non-encapsulated insulin tested for bioavailability in a separate study”, the bioavailability [1] was “less than 1%”.

In the case of “lyophilized-only hIL-12: hIL-12 control stock redissolved after lyophilization alone”, the “aggregation by SDS-PAGE” value [2] is reported as “did not produce irreversible aggregation” and the “soluble protein after redissolving” value [3] is reported as 99%.

In the case of “micronized hIL-12: Recombinant Human Interleukin-12 injected into tBA, frozen and lyophilized”, the “aggregation by SDS-PAGE” value [2] is reported as “irreversibly denatured and aggregated into dimers, trimers, and aggregates too large to enter the gel” and the “soluble protein after redissolving” value [3] is reported as 71%.
